Assay results published in paper PMC7037157, “Parallel Strategy Increases the Thermostability and Activity of Glutamate Decarboxylase” (Molecules, 2020).

Substrate: N[C@@H](CCC(=O)O)C(=O)O
Experiment: initial rates; GABA dansylated, HPLC
Type: biochemical, Levilactobacillus brevis
Conditions: 0.2 mol/L HAc-NaAc buffer, pH 4.8, 10-100 mmol/L L-glutamate, standard assay 48 °C, 40 μmol/L PLP
Text: initial rates; GABA dansylated, HPLC on GAD (glutamate decarboxylase; GAD1407)

| Protein | Km [mM] | kcat [s⁻¹] | kcat/Km [M⁻¹ s⁻¹] |
| --- | --- | --- | --- |
| GAD (glutamate decarboxylase; GAD1407) (Levilactobacillus brevis; N193D) (protein, pET28a(+)-GAD1407, expressed in E. coli BL21(DE3), Ni-NTA purified (His tag)) MAMLYGKHTHETDETLKPIFGASAERHDLPKYKLAKHALEPREADRLVRDQLLDEGNSRLNLATFCQTYMEPEAVELMKDTLEKNAIDKSEYPRTAEIENRCVNIIANLWHAPEAESFTGTSTIGSSEACMLAGLAMKFAWRKRAKANGLDLTAHQPNIVISAGYQVCWEKFCVYWDIDMHVVPMDDDHMSLDVDHVLDYVDDYTIGIVGIMGITYTGQYDDLARLDAVVERYNRTTKFPVYIHVDAASGGFYTPFIEPELKWDFRLNNVISINASGHKYGLVYPGVGWVIWRDQQYLPKELVFKVSYLGGELPTMAINFSHSASQLIGQYYNFIRFGFDGYREIQEKTHDVARYLAKSLTKLGGFSLINDGHELPLICYELTADSDREWTLYDLSDRLLMKGWQVPTYPLPKNMTDRVIQRIVVRADFGMSMAHDFIDDLTQAIHDLDQAHIVFHSDPQPKKYGFTH | 34.35 | 138 | 4000 |
| GAD (glutamate decarboxylase; GAD1407) (Levilactobacillus brevis) (protein, pET28a(+)-GAD1407, expressed in E. coli BL21(DE3), Ni-NTA purified (His tag)) MAMLYGKHTHETDETLKPIFGASAERHDLPKYKLAKHALEPREADRLVRDQLLDEGNSRLNLATFCQTYMEPEAVELMKDTLEKNAIDKSEYPRTAEIENRCVNIIANLWHAPEAESFTGTSTIGSSEACMLAGLAMKFAWRKRAKANGLDLTAHQPNIVISAGYQVCWEKFCVYWDIDMHVVPMDDDHMSLNVDHVLDYVDDYTIGIVGIMGITYTGQYDDLARLDAVVERYNRTTKFPVYIHVDAASGGFYTPFIEPELKWDFRLNNVISINASGHKYGLVYPGVGWVIWRDQQYLPKELVFKVSYLGGELPTMAINFSHSASQLIGQYYNFIRFGFDGYREIQEKTHDVARYLAKSLTKLGGFSLINDGHELPLICYELTADSDREWTLYDLSDRLLMKGWQVPTYPLPKNMTDRVIQRIVVRADFGMSMAHDFIDDLTQAIHDLDQAHIVFHSDPQPKKYGFTH | 39.72 | 102 | 2570 |
| GAD (glutamate decarboxylase; GAD1407) (Levilactobacillus brevis; S325A) (protein, pET28a(+)-GAD1407, expressed in E. coli BL21(DE3), Ni-NTA purified (His tag)) MAMLYGKHTHETDETLKPIFGASAERHDLPKYKLAKHALEPREADRLVRDQLLDEGNSRLNLATFCQTYMEPEAVELMKDTLEKNAIDKSEYPRTAEIENRCVNIIANLWHAPEAESFTGTSTIGSSEACMLAGLAMKFAWRKRAKANGLDLTAHQPNIVISAGYQVCWEKFCVYWDIDMHVVPMDDDHMSLNVDHVLDYVDDYTIGIVGIMGITYTGQYDDLARLDAVVERYNRTTKFPVYIHVDAASGGFYTPFIEPELKWDFRLNNVISINASGHKYGLVYPGVGWVIWRDQQYLPKELVFKVSYLGGELPTMAINFSHSAAQLIGQYYNFIRFGFDGYREIQEKTHDVARYLAKSLTKLGGFSLINDGHELPLICYELTADSDREWTLYDLSDRLLMKGWQVPTYPLPKNMTDRVIQRIVVRADFGMSMAHDFIDDLTQAIHDLDQAHIVFHSDPQPKKYGFTH | 42.39 | 176 | 4160 |
| GAD (glutamate decarboxylase; GAD1407) (Levilactobacillus brevis; D203E) (protein, pET28a(+)-GAD1407, expressed in E. coli BL21(DE3), Ni-NTA purified (His tag)) MAMLYGKHTHETDETLKPIFGASAERHDLPKYKLAKHALEPREADRLVRDQLLDEGNSRLNLATFCQTYMEPEAVELMKDTLEKNAIDKSEYPRTAEIENRCVNIIANLWHAPEAESFTGTSTIGSSEACMLAGLAMKFAWRKRAKANGLDLTAHQPNIVISAGYQVCWEKFCVYWDIDMHVVPMDDDHMSLNVDHVLDYVDEYTIGIVGIMGITYTGQYDDLARLDAVVERYNRTTKFPVYIHVDAASGGFYTPFIEPELKWDFRLNNVISINASGHKYGLVYPGVGWVIWRDQQYLPKELVFKVSYLGGELPTMAINFSHSASQLIGQYYNFIRFGFDGYREIQEKTHDVARYLAKSLTKLGGFSLINDGHELPLICYELTADSDREWTLYDLSDRLLMKGWQVPTYPLPKNMTDRVIQRIVVRADFGMSMAHDFIDDLTQAIHDLDQAHIVFHSDPQPKKYGFTH | 26.60 | 40.2 | 1510 |
